Experimental data published in article PMC4132801, “A Structural and Biochemical Model of Processive Chitin Synthesis” (The Journal of Biological Chemistry, 2014).

T1: SmNodC (Sinorhizobium meliloti, UniProt P04341)
T1 construct: gene nodC; full-length (1-426), C-terminal mCherry-His fusion from pEXmCherry, E. coli BL21(DE3) C43 membrane fraction, not purified
T1 sequence (P04341 1-426): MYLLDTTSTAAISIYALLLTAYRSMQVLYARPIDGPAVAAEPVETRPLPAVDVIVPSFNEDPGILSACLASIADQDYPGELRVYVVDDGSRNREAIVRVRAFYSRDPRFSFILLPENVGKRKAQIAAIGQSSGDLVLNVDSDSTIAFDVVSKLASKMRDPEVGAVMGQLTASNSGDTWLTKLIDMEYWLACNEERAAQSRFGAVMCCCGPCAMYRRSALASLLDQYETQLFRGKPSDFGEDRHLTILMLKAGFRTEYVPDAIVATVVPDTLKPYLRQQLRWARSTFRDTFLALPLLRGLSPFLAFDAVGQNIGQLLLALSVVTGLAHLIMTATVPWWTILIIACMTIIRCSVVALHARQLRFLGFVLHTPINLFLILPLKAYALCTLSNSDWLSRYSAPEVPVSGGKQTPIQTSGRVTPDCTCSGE


Tests used:
Test in all cases: coupled fluorogenic assay: chitinase B releases 4MU from 4MU-chitooligosaccharide product
SmNodC = molecular target: T1, SmNodC; format: biochemical
From the text: coupled fluorogenic assay: chitinase B releases 4MU from 4MU-chitooligosaccharide product on SmNodC | Nikkomycin Z is a competitive inhibitor with the substrate UDP-GlcNAc, with a Ki of […]

[1] = substrate: CC(=O)N[C@H]1[C@H](Oc2ccc3c(C)cc(=O)oc3c2)O[C@H](CO)[C@@H](O)[C@@H]1O; format: biochemical, Sinorhizobium meliloti; conditions: acceptor substrate, excess UDP-GlcNAc as co-substrate, 10 mM MgCl2, pH 7.5, 250 mM NaCl, 20 °C, E. coli membrane fraction
[2] = substrate: CC(=O)N[C@H]1[C@@H](OP(=O)(O)OP(=O)(O)OC[C@H]2O[C@@H](n3ccc(=O)[nH]c3=O)[C@H](O)[C@@H]2O)O[C@H](CO)[C@@H](O)[C@@H]1O; format: biochemical, Sinorhizobium meliloti; conditions: excess 4MU-GlcNAc as co-substrate, 10 mM MgCl2, pH 7.5, 250 mM NaCl, 20 °C, E. coli membrane fraction

Row | Molecule | Ki (SmNodC) | Km [1] | Km [2]
1 | C[C@@H]([C@H](N)C(=O)N[C@H](C(=O)O)[C@H]1O[C@@H](n2ccc(=O)[nH]c2=O)[C@H](O)[C@@H]1O)[C@H](O)c1ccc(O)cn1 [Nikkomycin Z] | 250 nM |  | 
2 | SmNodC (Sinorhizobium meliloti 1021) (protein, full-length (1-426), C-terminal mCherry-His fusion from pEXmCherry, E. coli BL21(DE3) C43 membrane fraction, not purified) MYLLDTTSTAAISIYALLLTAYRSMQVLYARPIDGPAVAAEPVETRPLPAVDVIVPSFNEDPGILSACLASIADQDYPGELRVYVVDDGSRNREAIVRVRAFYSRDPRFSFILLPENVGKRKAQIAAIGQSSGDLVLNVDSDSTIAFDVVSKLASKMRDPEVGAVMGQLTASNSGDTWLTKLIDMEYWLACNEERAAQSRFGAVMCCCGPCAMYRRSALASLLDQYETQLFRGKPSDFGEDRHLTILMLKAGFRTEYVPDAIVATVVPDTLKPYLRQQLRWARSTFRDTFLALPLLRGLSPFLAFDAVGQNIGQLLLALSVVTGLAHLIMTATVPWWTILIIACMTIIRCSVVALHARQLRFLGFVLHTPINLFLILPLKAYALCTLSNSDWLSRYSAPEVPVSGGKQTPIQTSGRVTPDCTCSGE |  | 1600 ± 400 µM | 90 ± 15 µM
